Experimental data from patent US9959384 (BIONIZ, dated 2018).
No end group written: not given here.

Biological target: T1, human common gamma chain (γc, CD132) (human, UniProt P31785 23-369)
T1 sequence (looked up): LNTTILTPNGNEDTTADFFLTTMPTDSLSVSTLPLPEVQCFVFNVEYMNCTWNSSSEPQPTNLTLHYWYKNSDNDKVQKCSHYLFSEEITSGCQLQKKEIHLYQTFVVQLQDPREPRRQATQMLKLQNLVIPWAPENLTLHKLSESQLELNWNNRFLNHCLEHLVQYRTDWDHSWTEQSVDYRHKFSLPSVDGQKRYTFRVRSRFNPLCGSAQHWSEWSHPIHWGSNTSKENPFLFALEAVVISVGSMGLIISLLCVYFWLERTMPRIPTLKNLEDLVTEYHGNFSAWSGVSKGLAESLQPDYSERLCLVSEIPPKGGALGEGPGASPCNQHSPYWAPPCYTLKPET
Assay: cell-based or functional assay

IC50 of inhibition of IL-2/IL-15-induced proliferation of ex vivo human T-lymphocytes (IL-2 + IL-15, 0.1 nM each): 150 nM
B1: BNZ132-1 peptide (peptide)
peptide: IKEFLQSFIHIVQSIINT
modifications: not fully specified
